From PMC7217052, “Rapid Biophysical Characterization and NMR Spectroscopy Structural Analysis of Small Proteins from Bacteria and Archaea” (Chembiochem, 2020)

Target: the molecule itself
Test: solution-state NMR structure; 5 mM protein, 50 mM sodium phosphate buffer pH 7.5, 100 mM NaCl, 298 K; best 20 structures shown as a symmetrical dimer

B1: SP-22 small protein from Haloferax volcanii (natural protein)
chain: MNKAHFEVFVDAADKYRWRLVHDNGNILADSGEGYASKQKAKQGIESVKRNAPDADVIEA
notes: source: heterologously expressed in E. coli, purified (purity above 95 %)
stoichiometry N: 2
